Source: article doi:10.1101/2025.02.11.637337 (bioRxiv, 2025)

B1: Fr-H6(E53H/E56H/E57H/R59H/E60H/E63H) (natural protein, horse)
chain: SSQIRQNYSTEVEAAVNRLVNLYLRASYTYLSLGFYFDRDDVALEGVCHFFRHLAHHKHHGAHRLLKMQNQRGGRALFQDLQKPSQDEWGTTLDAMKAAIVLEKSLNQALLDLHALGSAQADPHLCDFLESHFLDEEVKLIKKMGDHLTNIQRLVGSQAGLGEYLFERLTLKHD
B2: Fr-H4in(R52H/E56H/R59H/E63H) (natural protein, horse)
chain: SSQIRQNYSTEVEAAVNRLVNLYLRASYTYLSLGFYFDRDDVALEGVCHFFHELAHEKHEGAHRLLKMQNQRGGRALFQDLQKPSQDEWGTTLDAMKAAIVLEKSLNQALLDLHALGSAQADPHLCDFLESHFLDEEVKLIKKMGDHLTNIQRLVGSQAGLGEYLFERLTLKHD
B3: Fr-H2(E53H/E57H) (natural protein, horse)
chain: SSQIRQNYSTEVEAAVNRLVNLYLRASYTYLSLGFYFDRDDVALEGVCHFFRHLAEHKREGAERLLKMQNQRGGRALFQDLQKPSQDEWGTTLDAMKAAIVLEKSLNQALLDLHALGSAQADPHLCDFLESHFLDEEVKLIKKMGDHLTNIQRLVGSQAGLGEYLFERLTLKHD
B4: Fr-H4ex(E53H/E57H/E60H/R64H) (natural protein, horse)
chain: SSQIRQNYSTEVEAAVNRLVNLYLRASYTYLSLGFYFDRDDVALEGVCHFFRHLAEHKRHGAEHLLKMQNQRGGRALFQDLQKPSQDEWGTTLDAMKAAIVLEKSLNQALLDLHALGSAQADPHLCDFLESHFLDEEVKLIKKMGDHLTNIQRLVGSQAGLGEYLFERLTLKHD
B5: Fr-H8(R52H/E53H/E56H/E57H/R59H/E60H/E63H/R64H) (natural protein, horse)
chain: SSQIRQNYSTEVEAAVNRLVNLYLRASYTYLSLGFYFDRDDVALEGVCHFFHHLAHHKHHGAHHLLKMQNQRGGRALFQDLQKPSQDEWGTTLDAMKAAIVLEKSLNQALLDLHALGSAQADPHLCDFLESHFLDEEVKLIKKMGDHLTNIQRLVGSQAGLGEYLFERLTLKHD

How the values were obtained:
crystal structure = target: the molecule itself; experiment: crystal structure
SEC + native gel or EMSA = target: the molecule itself; experiment: SEC + native gel or EMSA

Protein | stoichiometry N (crystal structure) | stoichiometry N (SEC + native gel or EMSA)
B1 | 24 | 
B2 |  | 24
B3 |  | 24
B4 |  | 24
B5 | 24 | 
